T1: full-length human APLNR (amino acids 1-380 of accession number NP-005152.1) (human, UniProt P35414 1-380)
T1 sequence (looked up): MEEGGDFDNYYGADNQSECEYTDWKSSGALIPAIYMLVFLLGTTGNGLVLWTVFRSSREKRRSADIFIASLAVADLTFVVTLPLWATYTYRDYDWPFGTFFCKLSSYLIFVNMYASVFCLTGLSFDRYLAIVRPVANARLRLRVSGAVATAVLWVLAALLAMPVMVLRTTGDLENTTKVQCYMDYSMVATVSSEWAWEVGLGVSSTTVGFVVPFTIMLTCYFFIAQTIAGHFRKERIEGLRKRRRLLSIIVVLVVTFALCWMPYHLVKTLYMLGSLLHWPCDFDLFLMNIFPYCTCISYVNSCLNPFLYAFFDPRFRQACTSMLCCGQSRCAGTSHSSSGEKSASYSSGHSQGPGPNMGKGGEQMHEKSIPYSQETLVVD


Biological target: T1, full-length human APLNR (amino acids …)
Assay: cell-based or functional assay

| EC50 (M), CRE assay (cAMP reporter) in HEK293/CRE-luc/hAPLNR cells | Binder |
| --- | --- |
| 3.74e-07 M | PRLSHKGPM [Apelin67-75] |
| 5.19e-12 M | RPRLSHKGPMP [Apelin66-76] |
| 2.17e-12 M | RPRLSHKGPM [Apelin66-75] |
| 1.14e-13 M | PRLSHKGPMP [Apelin67-76] |
| 4.38e-10 M | PRLSHKGPMPF [Apelin-11] |
| 1.47e-10 M | QRPRLSHKGPMPFGGGGG [Apelin-13 + 5G] |

From patent publication US20140275489A1 (Regeneron, published 2014)
